Test results reported in publication PMC3321182 (The EMBO Journal, 2012).

Target: T1, N-terminal autoproteolysis product of the crystallized HormR-GAIN fragment of rat CL1 (CIRL/Latrophilin 1) (rat, UniProt O88917 460-837)
T1 sequence (looked up): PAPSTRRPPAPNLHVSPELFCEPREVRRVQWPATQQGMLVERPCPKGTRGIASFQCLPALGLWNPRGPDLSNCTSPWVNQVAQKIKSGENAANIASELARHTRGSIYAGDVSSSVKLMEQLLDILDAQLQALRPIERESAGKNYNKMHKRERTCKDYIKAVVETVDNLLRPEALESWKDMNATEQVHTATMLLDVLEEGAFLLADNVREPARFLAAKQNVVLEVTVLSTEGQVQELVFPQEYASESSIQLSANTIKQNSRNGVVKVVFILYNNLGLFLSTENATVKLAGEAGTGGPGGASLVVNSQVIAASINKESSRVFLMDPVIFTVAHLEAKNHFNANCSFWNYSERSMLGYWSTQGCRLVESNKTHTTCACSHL
Assay: crystal structure

TNFAVLMAHREI (peptide, UniProt O88917 838-849, looked up)
binding result: binds
